Assay results: the supplement of paper PMC10567573

B1: GLTSCR2 (parent)
chain: YNPSFEDHQTLLSAAHEVELQRQK

Variants of: B1
Test: protein stability index of a GFP-peptide fusion (GPS, HEK-293T) (PSI 1-6); higher = more stable
Conditions: c terminus: a fixed tail appended
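Further: lentivirally expressed fusions sorted by FACS into six bins by GFP to DsRed ratio, PSI derived from sequencing read proportions per bin multiplied by bin number.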

Protein stability index, by site and new letter:
P3: V 3.73; W 1.9; Y 3.97
S4: A 4.1; C 4.07; D 4.72; E 4.72; F 4; G 3.88; H 4.26; I 3.82; K 4.17; L 3.95; M 4.21; N 4.48; P 4.69; Q 4.28; R 4.65; T 3.79; V 4.02; W 3.67; Y 4.27
F5: A 4.22; C 4; D 5.24; E 4.9; G 4.06; H 4.09; I 4.07; K 2.48; L 3.43; M 3.5; N 4.43; P 4.02; Q 4.62; R 3.96; S 3.88; T 4.28; V 3.83; W 3.07; Y 3.68
E6: A 3.1; C 3.25; D 4.14; F 2.51; G 3.42; H 3.18; I 3.12; K 2.72; L 3.04; M 2.38; N 3.33; P 3.76; Q 2.58; R 2.57; S 3.15; T 3.09; V 3; W 2.75; Y 2.67
D7: A 3.72; C 4.08; E 3.46; F 2.81; G 4.17; H 3.67; I 3.21; K 3.62; L 3.35; M 3.23; N 3.98; P 4.13; Q 4.27; R 3.7; S 4.11; T 3.55; V 2.92; W 1.92; Y 3.52
H8: A 3.79; C 2.67; D 4.81; E 4.4; F 1.99; G 4.05; I 2.53; K 3.62; L 2.22; M 2.72; N 4.29; P 3.86; Q 3.84; R 3.66; S 4.2; T 3.11; V 2.33; W 1.88; Y 1.54
Q9: A 3.79; C 3.06; D 4.5; E 4.45; F 2.45; G 4.42; H 3.68; I 2.6; K 3.12; L 3.11; M 2.72; N 4.1; P 4.08; R 3.13; S 4.09; T 3.56; V 3.24; W 2.2; Y 3.36
T10: A 3.39; C 3.19; D 4.32; E 4.44; F 2.61; G 3.87; H 3.37; I 3.05; K 2.35; L 2.71; M 2.87; N 4.01; P 3.7; Q 3.47; R 2.59; S 3.94; V 3.53; W 2.65; Y 3.03
L11: A 4.7; C 4.26; D 5.01; E 5.13; F 2.81; G 4.58; H 4.57; I 2.96; K 4.71; M 4.19; N 4.96; P 4.92; Q 4.88; R 4.19; S 4.95; T 5.29; V 3.98; W 2.38; Y 3.25
L12: A 4.41; C 4.02; D 5.35; E 5.25; F 2.35; G 4.23; H 4.61; I 3.86; K 4.45; M 4.29; N 4.54; P 5.16; Q 4.2; R 4.44; S 4.79; T 4.62; V 4.15; W 1.58; Y 3.63
S13: A 3.21; C 3.25; D 3.88; E 3.2; F 2.66; G 3.29; H 3.47; I 2.45; K 2.58; L 2.9; M 3.08; N 3.66; P 4.2; Q 3.66; R 2.56; T 4.17; V 3.2; W 1.51; Y 2.75
A14: C 2.53; D 4.29; E 4.63; F 2.53; G 3.52; H 3.64; I 3.02; K 3.92; L 3.09; M 3.62; N 4.04; P 4.08; Q 3.86; R 3.48; S 4.2; T 4.04; V 3.41; W 2.51; Y 2.65
A15: C 3.3; D 4.54; E 4.53; F 2.47; G 4.28; H 3.56; I 2.29; K 3.96; L 2; M 2.93; N 3.85; P 3.61; Q 3.82; R 3.56; S 4.07; T 3.75; V 2.53; W 2.3; Y 3.48
H16: A 3.64; C 3.28; D 4.43; E 4.38; F 2.91; G 4.16; I 2.53; K 3.51; L 3.22; M 3.63; N 3.92; P 4.19; Q 3.48; R 3.2; S 4.45; T 3.93; V 2.97; W 2.51; Y 3.34
E17: A 3.15; C 2.88; D 3.85; F 2.45; G 2.94; H 2.78; I 3.03; K 3.43; L 2.96; M 3.29; N 3.33; P 3.33; Q 2.94; R 3.4; S 3.43; T 3.36; V 2.83; W 2.73; Y 2.51
V18: A 4; C 3.65; D 4.13; E 4.44; F 3.1; G 3.79; H 3.28; I 3.67; K 4.14; L 3.69; M 3.65; N 3.8; P 4.41; Q 3.76; R 3.43; S 3.65; T 4.24; W 2.54; Y 3.49
E19: A 2.63; C 3.33; D 4.05; F 2.49; G 3.8; H 3.39; I 2.85; K 3.25; L 2.28; M 3.01; N 3.36; P 3.86; Q 3.36; R 2.69; S 3.39; T 3.5; V 2.67; W 2.75; Y 2.42
L20: A 4.04; C 3.99; D 4.29; E 4.54; F 3.57; G 4.16; H 4.51; I 3.71; K 4.44; M 3.67; N 4.09; P 4.46; Q 3.87; R 3.89; S 4.26; T 4.39; V 3.63; W 3.19; Y 3.74
Q21: A 3.34; C 3.61; D 4.16; E 3.42; F 3.06; G 3.26; H 2.96; I 3.26
